One data set addresses T1, sN-TALER IV-3.2 (synthetic).
T1 chain: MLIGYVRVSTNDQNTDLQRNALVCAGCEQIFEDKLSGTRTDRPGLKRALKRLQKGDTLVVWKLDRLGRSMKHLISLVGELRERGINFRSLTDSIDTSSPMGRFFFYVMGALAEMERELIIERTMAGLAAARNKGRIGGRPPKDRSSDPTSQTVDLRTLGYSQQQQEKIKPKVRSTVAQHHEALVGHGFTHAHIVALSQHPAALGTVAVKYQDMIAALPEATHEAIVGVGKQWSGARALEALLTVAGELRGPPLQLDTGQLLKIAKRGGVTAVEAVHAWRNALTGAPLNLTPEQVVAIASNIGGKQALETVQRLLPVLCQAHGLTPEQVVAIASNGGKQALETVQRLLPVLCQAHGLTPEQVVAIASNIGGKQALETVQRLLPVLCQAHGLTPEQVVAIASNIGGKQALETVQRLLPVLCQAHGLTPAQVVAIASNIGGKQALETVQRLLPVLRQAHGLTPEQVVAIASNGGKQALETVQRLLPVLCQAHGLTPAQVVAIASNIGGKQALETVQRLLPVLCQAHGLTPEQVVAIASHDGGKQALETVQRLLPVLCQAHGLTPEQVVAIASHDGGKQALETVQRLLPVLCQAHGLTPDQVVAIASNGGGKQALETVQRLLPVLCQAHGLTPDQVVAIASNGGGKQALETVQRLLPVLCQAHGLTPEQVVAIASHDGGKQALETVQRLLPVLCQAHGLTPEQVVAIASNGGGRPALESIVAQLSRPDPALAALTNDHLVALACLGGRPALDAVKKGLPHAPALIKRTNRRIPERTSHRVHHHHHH
Nature of the data set: cell_activity; E. coli. The settings on record: tags: 6-His. The gist of the method: (§1)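 DH5alpha cells co-transformed (heat shock or electroporation) with N-TALER expression and reporter plasmids at ~1:1 mass ratio; reporter alone as control. Plated on chloramphenicol/kanamycin/X-gal, grown 37° C. for 18 to 36 hours; recombination scored by colony colour.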

Another data set deals with T2, sN-TALER IV-4 (synthetic).
T2 chain: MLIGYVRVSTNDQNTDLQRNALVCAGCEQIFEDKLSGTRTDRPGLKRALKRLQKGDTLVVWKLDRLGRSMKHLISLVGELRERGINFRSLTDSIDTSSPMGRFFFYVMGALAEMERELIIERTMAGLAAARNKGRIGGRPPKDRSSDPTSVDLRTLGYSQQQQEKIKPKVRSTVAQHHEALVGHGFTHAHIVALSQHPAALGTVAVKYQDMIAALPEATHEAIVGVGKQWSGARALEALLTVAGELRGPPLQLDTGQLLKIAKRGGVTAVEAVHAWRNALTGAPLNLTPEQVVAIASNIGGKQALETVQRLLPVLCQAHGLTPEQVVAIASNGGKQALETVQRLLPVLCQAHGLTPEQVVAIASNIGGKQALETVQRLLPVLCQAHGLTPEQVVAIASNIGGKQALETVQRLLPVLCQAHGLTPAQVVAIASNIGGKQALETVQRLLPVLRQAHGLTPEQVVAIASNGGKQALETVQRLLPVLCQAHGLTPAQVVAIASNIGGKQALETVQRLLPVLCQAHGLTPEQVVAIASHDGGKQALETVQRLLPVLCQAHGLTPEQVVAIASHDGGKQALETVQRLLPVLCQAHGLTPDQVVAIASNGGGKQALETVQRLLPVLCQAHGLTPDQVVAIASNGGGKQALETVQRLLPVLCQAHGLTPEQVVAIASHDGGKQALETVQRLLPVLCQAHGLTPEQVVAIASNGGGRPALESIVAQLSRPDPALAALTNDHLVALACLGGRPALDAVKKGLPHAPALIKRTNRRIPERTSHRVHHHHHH
As to the kind of experiment: cell_activity; E. coli. The settings on record: tags: 6-His. The gist of the method:
as §1

B1: Gin20TALE+0 (dsDNA)
DNA 1: AGAAGGTATTTATATCCAAAACCATGGTTTACAGTATAAATACCTTCT
DNA 2: AGAAGGTATTTATACTGTAAACCATGGTTTTGGATATAAATACCTTCT
Consider B1, for which the activity with sN-TALER IV-3.2 and in the data set with sN-TALER IV-4 was 1 score each time.

B2: Gin18TALE+0 (dsDNA)
DNA 1: AGAAGGTATTTATACCAAAACCATGGTTTACATATAAATACCTTCT
DNA 2: AGAAGGTATTTATATGTAAACCATGGTTTTGGTATAAATACCTTCT
B2: the activity in the data set with sN-TALER IV-3.2 was determined as 3 score; in the data set with sN-TALER IV-4, 4 score.

(Values after US20140193915, “COMPOSITIONS AND METHODS FOR CUSTOM SITE-SPECIFIC DNA RECOMBINASES” (Monsanto Technology, LLC, published 2014).)
